The chains are these.
B1: β3-CT L717K-L718K mutant (domain or fragment, human, UniProt P05106 742-788, looked up)
chain: KKKITIHDRKEFAKFEEERARAKWDTANNPLYKEATSTFTNITYRGT
B3: integrin β3 cytoplasmic tail (β3 CT, K716-T762) (domain or fragment, human, UniProt P05106 742-788, looked up)
chain: KLLITIHDRKEFAKFEEERARAKWDTANNPLYKEATSTFTNITYRGT
B5: integrin αIIb cytoplasmic tail (αIIb CT, W988-E1008) (peptide, UniProt P08514 1019-1039, looked up)
chain: WKVGFFKRNRPPLEEDDEEGE

The target of test [1] is T1, filamin A immunoglobulin repeat 21 (FLNa-Ig21) (human, UniProt P21333 2236-2330).
T1 sequence: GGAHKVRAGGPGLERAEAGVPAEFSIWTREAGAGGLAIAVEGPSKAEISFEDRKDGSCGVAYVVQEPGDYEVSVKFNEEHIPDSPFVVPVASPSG
Briefly: SPR. For orientation: SPR reads the build-up and loss of mass on a sensor chip optically.

The target of test [2] is T1, filamin A immunoglobulin repeat 21 …. Briefly: NMR titration.
For test [3], the target named is B5. In words: SPR.
Test [4] has as its target T2, FLNa-Ig21 E2276A (human, UniProt P21333 2236-2330, E2276A).
T2 sequence: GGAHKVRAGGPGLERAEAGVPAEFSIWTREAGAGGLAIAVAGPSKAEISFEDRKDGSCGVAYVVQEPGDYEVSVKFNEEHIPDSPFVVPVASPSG
Briefly: NMR titration.

For test [5], the target named is T3, β3 transmembrane-cytoplasmic domain (β3 TMCD, K689-T762) (human, UniProt P05106 715-788).
T3 sequence (looked up): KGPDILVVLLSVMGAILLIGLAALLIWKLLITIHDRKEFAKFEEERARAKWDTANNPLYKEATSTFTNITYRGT
Briefly: NMR titration.

In test [6] the target is T4, FLNa-Ig21 pre-saturated β3-CT (human, UniProt P21333 2236-2330; P05106 742-788).
T4 sequence 1: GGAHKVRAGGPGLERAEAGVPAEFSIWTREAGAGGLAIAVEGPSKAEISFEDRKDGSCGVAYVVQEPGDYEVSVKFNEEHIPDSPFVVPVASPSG
T4 sequence 2: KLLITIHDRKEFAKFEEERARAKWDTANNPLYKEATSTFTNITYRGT
In words: SPR.

Test [7] has as its target B1. In words: NMR structure.
In test [8] the target is B3.
For test [9], the target named is T5, FLNa-Ig21 A2268K (human, UniProt P21333 2236-2330, A2268K).
T5 sequence: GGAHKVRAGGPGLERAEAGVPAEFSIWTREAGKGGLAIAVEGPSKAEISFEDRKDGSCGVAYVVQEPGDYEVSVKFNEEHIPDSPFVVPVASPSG
Briefly: NMR titration.

In test [10] the target is T6, GST-FLNa-Ig21-β3 CT chimera (human, UniProt P05106 742-788; P21333 2236-2330).
T6 chain: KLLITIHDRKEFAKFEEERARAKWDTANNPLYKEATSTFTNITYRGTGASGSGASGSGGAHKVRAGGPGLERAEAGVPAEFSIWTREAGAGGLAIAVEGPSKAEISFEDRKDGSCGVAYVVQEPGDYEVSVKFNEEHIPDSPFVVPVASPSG
In words: pull-down.

Test [11] deals with B3. In words: NMR titration.

The source of these data is publication PMC4424056 (Nature structural & molecular biology, 2015).

By Kd is commonly meant a measure of binding affinity in units of concentration. KLLITIHDRKEFAKFEEERARAKW (peptide, UniProt P05106 742-765, looked up) [integrin β3 membrane-proximal fragment β3-N (K716-W739)]: in test [1], the Kd was ~223 µM.
On to B1, for which the binding result in test [2] is “binds”.

B2: FLNa-Ig21-β3-CT chimera (other, human)
chain: KLLITIHDRKEFAKFEEERARAKWDTANNPLYKEATSTFTNITYRGTGASGSGASGSGGAHKVRAGGPGLERAEAGVPAEFSIWTREAGAGGLAIAVEGPSKAEISFEDRKDGSCGVAYVVQEPGDYEVSVKFNEEHIPDSPFVVPVASPSG
With B2, in test [3], the Kd was ~19 µM.
Regarding B3, the binding result in test [4] and in [2] was “binds” in each case.

B4: αIIb transmembrane-cytoplasmic domain (αIIb TMCD, E960-E1008) (domain or fragment)
chain: not shown
For the molecule B4, the binding result in [5] is on record as “binds”.
In the case of B5, the binding result in test [6], in test [7], in test [9] and in [10] was “binds” in each case. Also, the Kd in [8] is ~368 µM.
Turning to WKVGFFERNEPPLEEDDEEGE (peptide, UniProt P08514 1019-1039, looked up) [αIIb CT K994E-R997E mutant], in [11], the binding result is “binds”.
